Reference: the nanobody polyreactivity screen of Harvey et al. (2022)

Test: yeast display, Sf9 membrane polyspecificity reagent, FACS + sequencing; frameworks hold sequencing errors
Method in brief: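 Polyreactivity labels are assigned by the sorting gate from which each nanobody was recovered. The gates were low and high (top ~1%), set on anti-HA fluorescence for expression and streptavidin fluorescence for reagent binding. Before sorting, galactose-induced (36–48 hours) yeast display cells were stained for 1 hour at 4 °C with 10% biotinylated, detergent-solubilized Sf9 membrane reagent.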

Sequence	polyreactivity (PSR sort gate)
QVQLVESGGGLVQAGGSLRLSCAASGFTFSSNAMGWYRQAPGKERELVAAISFNSTSTYYADSVKGRFTISRDNAKNTVYIQMNSLKPEDTAVYYCAKESPPAEGDSGYDYWGQGTQVTVSS	low polyreactivity
QVQLVESGGGLVQAGGSLRLSCAASGITFLFYAMGWYIPAPGKEREYVAAISTRGGRTYYADSVKGRFTISRDNAKNTVYLQMNSLKPEDTAVYYCAADFYYRTVATVTSVARYDYWGQGTQVTVSS	high polyreactivity
QVQLVESGGGLVQAGGSLRLSCAASGSIFVPYAMGWYRQAPGKERELVAAISNGDSTYYADSVKGRFTISRDNGKNTVYLQMNSLNPEDTAVYYCAAPYAGWRDGGDYWGQGTQVTVSS	low polyreactivity
QVQLVDSGRGLVQAGGSLRLSCAASGHIFLYYTMAWYRQAPGKERELVAGITIGGSTIYADSVKGRFTISRDNAKNSVYLQMNSMKPEDTAVYYCNVVNYVFIYSYWEYYYWGQGTEVTVSS	low polyreactivity
QVQVVESGVGLVQSGGSLRLSYAASGSIFIPYPMGWYRQAPGKERELVAAISSSGSTYYADSVKGRFTISRDNAKNTFYLQMNSLKPEDTAVYYCAAERHYSYSSYDDWGQGTQVTVSS	low polyreactivity
QVQLVESGGGLVQAGGSLRLSCAASGGTLSYYAMGWYRQAPGKERELVAGISRRGGSTYYADSVKGRFTISRDNAKNTVYLQMNSLNPEDTAVYYCAADSNRHYYYWGQGTQVTVSS	high polyreactivity
QVQLVESGGGLVQAGGSLRLSCAASGFTFSPNAMGWYRQAHGKESELVAAIDWSGDRTYYADSVKGRFTISRDNAKKTVYLQINSLKPEDTAVYYCNVVRRSPGDYTYYYWGQGTQVTVSS	low polyreactivity
QVQLVESGGGVVQAGGSLRISCAASGRTFGVYAMGWYREAPGKERELVAAINRSGTRTYYADSVKGRFSISRDNPKNTVYLPMNSLKPEDTAVYYCAASWYPGSRNYDYWGQGTQVSVSS	high polyreactivity
QVQLVESGGGLVQAGGSLRLSCAASGLIFANNAMGWYRQAPGKERELVAVISRGGRTYYADSVKGRFTISRDNAKNTVYLQMNSLKPEDTAVYYCAKPVLVGLGARYVYWGQGTQVTVSS	high polyreactivity
QVQLVESGGGLVQAAGSLRLSCAASGSIFTVYVMGWYRLAPGKEREFVATINWRGTSTYYADSVKGRFTISRDNEKNTVYLQMNSLKPEDTAVYYCAAVGSYYGGYDYWGQGTQVTVSS	high polyreactivity
QVQLVESGGGLVQAGGSLRLSCAASGRTFQDNAMGWYRQAPGKERELVAAIRDNGGSTYYADSVKGRFTISRDNAKNTVYLQMNSLKPEDTAVYYCAADQGTGSYDYWGQGTQVTVSS	low polyreactivity
QVQLVESGGGLVQAGGSLRLSCAASGITFSRYAMGWYRQAPGKERELVAAITWDGGRTYYADSVKGRFTISRDNAKNTVYLQMNSLKPEDTAVYYCAASRYSPVRWVWLYYWGQGTQVTVSS	high polyreactivity
QVQLVESGGGLVQAGGSLRLSCAASGFTFSDNAMGWYRQAPGKERELVAASSRSGGRTYYADSVKGRFTISRDNAKNTVYLQMNSLKPEDTAVYYCNARRLSTGFDRYDYWGQGTQVTVSS	high polyreactivity
QVQLVESGGGLFQAGGSLRLSCAASGSTFVYNDMGWYRKATGKERELVAYISTSGGSTYYADSVKGRFTISRDNAKNTVYLQMNSLKPEDTAVYYCNAKRSGPWFLHVPVYYWGQGTQVTVSS	low polyreactivity
QVQLVESGGGLVQAGVSLRLSCAASGSTFVVNAMGWYRQAPGKERELVAAITQSGGSTFYADSVKGRFTISRDNAKNTVYLQMNSLKPEDTAVYYWGQGTQVTVSS	low polyreactivity
QVQLVESGGGLVQAGGILRLSCAASGSIFYRNAMGWYRQAPGKERELVAAISARGGRTNYADSVKGRFTISRDNAKYTVYLQMNSLKPEDTAVYYCNTADSWYHRSQAYDYWGQGTQVTVSS	high polyreactivity
QVQLVESGGGLVQAGGSLRFSCPASGSILTGYAMGWYRQAPGKERELVAAINFSGDNTYYADSVKGRFTISRDNAKNTVFLPMNSLKPEDTAVYYCNADGRYAYVWYDYCGQGTQVTVSS	low polyreactivity
QVQLVESGGCLVQAGGSLRLSCAASGRIFHSNAMGWYRQAPGKERELVAAISTAGSTYYADSVKGRFTISRDNAKNTVYLQMNSLKPEDTAVYYCNAESPWWWEYDSWGQGTQVTVSS	high polyreactivity
QVQLVESGGGLVQAGGSLRLSCAASGFTFTRYTMGWYRQAPGKERELVAHITSGDSTNYADSVKGRFTISRDNAKNTVYLQMNSLKPEDTAVYYCNAEVKGFFYDYDYWGQGTQVTVSS	low polyreactivity
QVQLVESGGGLVQAGGSLRLSCAASGFIFIHNAMGWYRQAPGKERELVAAISYSGGSTYYADSVKGRFTISRDNAKNTVYLQMNSLKPEDTAVYYCNRVQYYRADRMDYWGQGTQVTVSS	low polyreactivity
QVQLVESGGGLVQAGGSLRLRCAASGLIFAEYAIGWYRQAPGKERELVARITSGGSTDYADSVKGRFTISRDNAKNTVYLQMNSLKPEDTAVYYCAARYYSQDKNASTASDFDYWGQGTQVTVSS	low polyreactivity
QVQLVESGGGLVQAGGSLRLSCAASGSIFDGNTMGWSRPAPGKERELVATIRWRGGRTYYADSVKGRFTISRDNAKNTVSLQMNSLKPEDTAVYYCNARWGYSRHRLMGYWGQGTQVTVSS	high polyreactivity

Sequence	polyreactivity (PSR sort gate)
QVQLVESGGGLVQAGGSLRLSCAASVFTFGQYTMGWYRQAPGKERELVAAITGSGGNTYYADSVKGRFTISRDNAKNTVYLQMNSLKPEDTAVYYCAVQWTYDQYYDYDYWGQGTQVTVSS	low polyreactivity
QVQLVESGGGLVQAGGSLRLSCAASGIIFAQYTMGWYRQAPGKERELVAAINRNGGSTYYADSVKGRFTISRDNAKNSVYLQMNSLKPEDTAVYYCNADALGFRYDYWGQGTQVTVSS	low polyreactivity
QVQLVESGGGLVQAGGSLRFSCAASGINIWTNVMGWYIQAPRKESEFVAAISRSGGSTYYADSVKGSFTISRDNAKNTVYLQMISLKPEDTAVYYCAARWSYSVQKFDYWGQGTQLTVSS	high polyreactivity
QVQLVESGGGLVQAGGSLRLTCAASGRIFWGNAMGWYRQAPGKERDLVAAITSCDGTNYADSVKGRFTISRDNAKNTVYLQMNSLKPEDTAVYYCAARKYYYLQYTPRYDYWGQGTQVTVSS	low polyreactivity
QVQLVESGGGLVQAGGSLRLSCAASGRTFNGYALGSSRQAPGKERELVAAISGRGRSTRYADSVKGRFTISRDNAKNTVYLQMNSLNPEDTAVYYCNARGYSETQREYDSWGQGTQVTVSS	high polyreactivity
QDQHVESGGGLVQAGGSLRLSCSATGRIFTSYVMGWYRQPQGKERQLVAAITRSGGSTYYADSVKVRFTISRDTAKNTVYLQMKSLIPVDTAVYYCNALTRLQIGGEGGGYWGKGTQVTVSS	high polyreactivity
QVQLVESGGGLVQAGGSLRLSCAASGRIFNLYAMGWYRQAPGKERELVAGIRWSTGSTYYADSVKGRFTISRDNAKNTVYLQMNSLKPEDTAVDYCAVRYYCSGRYYYTYYSWGQGTLVTVSS	high polyreactivity
QVQLVESGGGLVQAGGSLRLSCAASGIIFGGYDMGWYRQATGKERELVAAISWSGGSTYYADSVKGRFTISRDTAKNTVYLQMNSLKPEDTAVYYCAAAYYAPTRDYYYWGQGTQVTVSS	low polyreactivity
QVQLVESGGGLVQAGGSLRLSCAASGRIFYYYAMGWYRQAPGKEREFVADISARGGSTYYADSVKGRFTISRDNAKNTVYLQMNSLKPEDTAVYYCAATTGLYTRYGYWGQGTQVTVSS	high polyreactivity
QVQLVESGGGLVKAGGSLRLSCAASGSIFYFNAMGWYRQAPGKERELVATIRSGDGRTYYADSVKGRFTISRDNAQNTVYLQMNSLKPEDTAVYYCNASRVVYRQAYVYGYDYWGKGTQVTVSS	low polyreactivity
QVQLVESGGGLDQAGGSLRLSSAASGRIFSKSAMGLYRQAPGKETELVAAMTSGGRTYYADSVKGRFTISRDIAKNTVYLQMNSLKPEDTAVYYCAARYVQVVRKFGYWVQGTQVTVSS	high polyreactivity
QVQLVESGGGLVQAGGSLRLSCAASGSIFFYALGWYRQAPGKERELVADITYTGGSKYADSVKGRFTISRDNAKNTVYLQLNRLKPEDTAVYYCAKLDGGLFDYWGQGTQVTVSS	low polyreactivity
QDQLVESGGGLVQAVGSLRLSCAASGSTFWSYAMGWYRQAPGKERELVAAITDSGGSTYYADSVKGRFTISRDNAKNTVYLQMNSLKPEDTAVYYCAVDSRYTPPLRPLGPFDYWGQGTQVTVSS	low polyreactivity
QVQLVESGRGLVQAGCSLRLSCPASGIIFTTYDMGWYRQAPGKERELVAAISSSTTNTYYADSVKWRFTISRDNAMNTVYLQMNSLKPEETAVYYCAAPYKSNAGFDYWGQGTQVTVSS	low polyreactivity
QVHLVESVGGLVQAGGSLRLSCAASGRTFPYNAMGWYIQAPGKERELVAVISKGGGRTYYADSVKGRFTISLDNAKNTVYLQMNSLKPEDTAVYYCDARYDGSSDYRLNYWGQGTQVTVSS	high polyreactivity
QVQLVESGGGLVQAGGSLRLSWAASGSTFQSYAMGLSRQAPGKERELVAAISFSGGSTYYADSVKGRFTISRDNAKNTVYLQMHSLKPEDTAVYYCAADVAYVEYDYWGQGTQVTVSS	low polyreactivity
QVQLVESGGGLVQAGGSLRLSCAASGLTFYYNAMGWYRQAPGKERELVAAISRYGGSTYYADSVKGRFRISRDNAKNTDYLQMNSLKPEDTAVYYCAVAYVYTRKGRVQPVKYDYWGQGTQVTVSS	high polyreactivity
QVQLVESGGGLVQAGGSLRLSCASSGFILDYNAMGWYRQAPGKERQLVATITGRGDRTYYADSVKGRFTISRDNAKNTVYLQMNSLKPEDTAVYYCAAGFDGSSHPGFDSWGQGTQVTVSS	low polyreactivity
QVQLVESGGGLVQAGGSLRLSCAASGFIIYGYVMGWYRQAPGKERELVAAINSSSGRTYYADSVKGRFTISRDNAKNTVYLQMNSLKPEDTAVYYCAAYYYGSYDGTPYDYWGQGTQVTVSS	low polyreactivity
QVQLVESGGGLVQAGGSLRLSCAASGSIFTIYAMGWYRQAPGKERELVAAINRGDGTNYADSVKGRFTISRDNAKNTVYLQMNSLKPEDTAVYYCAAKAYTNYDRQVNLRRYYWGQGTQVTVSS	high polyreactivity
QVQLVESGGGLVQAGGSLRLSCAASGSIFRNNAMGWYIQAPGKERELVASITRRGGSTYYADSVKGRFTISRDNAKNTVYLQMNSLKPEYTAGSYCAATTQHRYTLNYWGQGTQVTVSS	high polyreactivity
